B1: POU domain, class 3, transcription factor 3, residues 320 to 388; numbered along this chain, P20264 (parent)
chain: DDLEQFAKQFKQRRIKLGFTQADVGLALGTLYGNVFSQTTICRFEALQLSFKNMCKLKPLLNKWLEEAD
B2: Metastasis-associated protein MTA3, residues 265 to 317; numbered along this chain, Q9BTC8 (parent)
chain: RDEMEEWSASEASLFEEALEKYGKDFNDIRQDFLPWKSLTSIIEYYYMWKTTD

Variants of: B1
Assay: abundance fitness (aPCA) (normalised: wild type 0, dead -1); higher = more abundant; growth selection in yeast, the domain comes from the species named
Settings: Homo sapiens

Abundance fitness of substitutions, site by site:
K8: A 0.001 | T -0.475 | W -0.42 | V -0.424 | E -0.019 | I 0.162 | M -0.106 | L 0.022 | Q -0.061 | D -0.705 | H -0.306 | F -0.439 | G -0.561 | S -0.738
L3: T -0.981 | P -0.755 | R -0.937 | I -0.161 | E -0.43 | V -0.318 | F -0.454 | Y -0.242 | Q -0.421 | W -0.587 | A -1 | G -0.758
D1: N 0.529
D2: E -0.031 | M -0.252 | P -0.339 | I -0.238 | T 0.029 | Q -0.159 | R -0.176 | G -0.224 | L -0.272 | W -0.111 | V -0.95 | K 0.034 | A 0.107 | S -0.119
Q9: V -0.231 | Y 0.052 | I -0.425 | A -0.241 | N 0.038 | C -0.457 | L -0.223 | G -0.205 | W -0.2 | E 0.042 | R -0.222 | M 0.128 | K -0.046 | T 0.029 | S -0.107
A7: C -0.198 | T -0.069 | L -0.908 | P -0.722 | W -0.87 | R -0.69 | Q -0.703 | G -0.478 | S 0.117 | I -0.057 | D -0.694 | F -0.642 | M -0.737 | V -0.065
F10: C -0.338 | G -0.288 | A -0.776 | K -0.365

Variants of: B2
Assay: as above
Settings: Homo sapiens

Abundance fitness: each site, then its substitutions
Y45: V -1.01 | G -0.98 | W -0.546 | R -0.174 | S -0.561 | P -0.726 | M -0.872 | T -0.41 | E -0.77 | Q -0.566
I42: T -0.605 | V -0.475 | L -0.658 | A -0.98 | W -0.204 | H -0.744 | Y -0.572 | P -0.798 | D -0.828 | C -0.711 | F -0.634 | Q -0.875 | E -0.888 | M -0.833 | S -0.713 | R -0.69
I43: L -0.689 | R 0.162 | D -1.11 | W -0.559 | A -0.148 | K 0.268 | P -0.875 | E 0.392 | N -0.7 | T -0.193 | S -0.297 | H -0.075 | C -0.517 | G -0.491 | V -0.381 | Y -0.304 | M -0.01 | F -0.474 | Q 0.136
Y47: T 0.398 | H 0.196 | E 0.516 | V -0.681 | C -0.187 | Q 0.329 | A 0.387 | N 0.053 | R 0.31 | K 0.375 | S 0.325 | L -0.735 | G 0.027 | W -0.174
K37: Y -0.806 | N -0.803 | L -0.802 | M -0.719 | H -0.941 | D -0.707 | V -0.842 | S -0.65 | T -0.88 | G -0.812 | I -0.586 | W -0.84 | F -0.785 | R -0.398 | E -0.806 | P -0.877
W49: N 0.404 | Q 0.349 | L 0.112 | D -0.532 | Y 0.077 | T 0.248 | H 0.122 | M 0.353 | E 0.075 | A -0.088 | P -0.599 | R 0.514 | I -0.04 | K 0.497 | C 0.061 | V -0.204
Y46: H -0.176 | C -0.976 | M -0.99 | N -0.907 | W -0.62 | L -0.851 | G -0.422 | K -0.791 | E -0.531 | S -0.457 | A -0.824 | P -0.598 | V -0.98
S38: C -0.995 | M -0.159 | F -0.844 | L -0.69 | Q -0.393 | K -0.852 | D -0.71 | V -0.821 | P -0.563 | Y -0.711 | R -0.749 | E 0.047 | G 0.47 | H -0.425 | W -0.992 | I -0.629
T52: K 0.344 | M -0.402 | F -0.51 | G 0.001 | H -0.405 | N 0.2 | I -0.292 | C 0.191 | Y -0.428 | A -0.097 | L -0.298 | V -0.097 | W -0.521 | P -0.055 | S -0.032 | R 0.08 | D -0.251
E44: Y -0.834 | N 0.177 | V -0.758 | G -0.691 | T -0.443 | C -0.808 | I -0.779 | M -0.961 | L -0.694 | W -1.05 | H -0.438 | Q 0.015 | P -0.922 | D -0.145 | R 0.079 | K -0.246 | A -0.477
L39: V -0.327 | M -0.541 | A -0.6 | E -0.865 | G -0.896 | T -0.389 | C -0.733 | D -0.483 | S -0.581 | R -0.348
M48: C -0.086 | Q 0.133 | L -0.176 | E -0.207 | T -0.103 | P -0.817 | N -0.144 | A -0.006 | W -0.256 | K 0.128 | G -0.257 | S -0.04 | D -0.619 | V -0.212 | R 0.323 | F 0.204
S41: F -0.54 | L -0.577 | G -0.954 | Q -0.226 | E 0.161 | I -1.09 | K -0.781 | N -0.561 | D 0.05 | C -0.681 | H -0.717 | W -0.901 | A -0.139 | R -0.868 | V -0.837 | P 0.242 | M -0.794 | Y -0.488 | T -0.804
T51: H -0.235 | G 0.076 | L -0.147 | R -0.097 | V -0.624 | S -0.068 | N -0.027 | F -0.732 | C -0.244 | Y 0.304 | Q 0.433 | D 0.134 | W -0.853 | M -0.542 | P -0.1 | A 0.185
T40: I -0.771 | F -0.875 | A -0.322 | R -0.029 | Y -0.571 | W -0.898 | C -0.328 | V -0.714 | M -0.435 | P -0.332 | N 0.129 | G -0.188 | Q 0.195 | L -0.827 | S -0.336 | D 0.195 | H -0.138
D53: C 0.179 | P -0.044 | R -0.164 | G 0.066 | V -0.336 | Y -0.543 | I -0.566 | T -0.41 | A -0.135 | N 0.211
K50: Q -0.102 | E -0.278 | D -0.593 | L -0.444 | S -0.2 | G -0.877 | I -0.653 | A -0.42 | C -0.279 | R -0.288 | P -0.472 | F -0.62 | M -0.171 | N 0.024 | H -0.127 | T -0.271 | W -0.882 | V 0.311

Reference: the Human Domainome abundance scans (Beltran et al. 2025)
